Source: article PMC9587256, “The retaining β-Kdo glycosyltransferase WbbB uses a double-displacement mechanism with an intermediate adduct rearrangement step” (Nature Communications, 2022)
Numbering of substitutions follows the chain as printed.

B1: WbbB_(GT99)-E158Q (domain or fragment)
chain: LAVFLPPYPFRGLKAPYLWMFYKYLHCATDSILFITGEDYLSVTDDEAQRARWEFDPASMASLGYELPNAQSMACHEYLTLDNAFYETLLSRHHHDPIKSFSAFLTERIPDLETELHALLDSKKGIIDQIDTFISICNCPSLEHVARTLGKEVMHIQIGPLRAPMYRNTAYLDFAGVNGGTEASARYEKCQAEFDIKASLGDLHNYFLEVLPPAEAATHSAAGVVLQVEDDSNLIAYNHDFTNISLLSYVRQRYEKEDILVRAHPGSLFRLRDDVFTIDDSANSLAFINQCNEVFTINSSVGLEAILTGKKTTVLGDCSYAFINELAGASATVNAAAFYLFSYLVPFDLVFNQEYLKFRLGHPEEREIVGKHIEFYSADMPGSLSQAAHSLSSLINEAIS
notes: source: ClearColi BL21 (DE3) E. coli, purified (IMAC, desalting)
B2: WbbB_(GT99)-D232C (domain or fragment)
chain: B1 chain with Q157E, D231C
notes: source: ClearColi BL21 (DE3) E. coli, purified (IMAC, desalting), then reacted with the CMP-β-Kdo reaction mix
B3: WbbB_(GT99)-D232N (domain or fragment)
chain: B1 chain with Q157E, D231N
modifications: Kdo modified in ~8% after the CMP-β-Kdo reaction mix; N-terminal methionine removed with variable efficiency
notes: as for B2

Key:
WbbBGT99 = biological target: T1, WbbBGT99 (Klebsiella terrigena, UniProt Q6U8B0); assay: native MS and pepsin MS/MS after NaBH4 reduction of the enzyme-Kdo adduct; type: biochemical; conditions: covalent; Kdo transferred to Asp232; donor generated in situ from CTP, Kdo and KdsB; Mg; 5 min then NaBH4, room temperature
T1 construct: gene wbbB; WbbBGT99-His6 in pET28a, expressed in E. coli BL21(DE3) or ClearColi BL21(DE3); dimer in native MS

[1] = biological target: the molecule itself; assay: native MS; nanoESI, positive mode, UHMR Orbitrap; aqueous ammonium acetate 200 mM, pH 7, 25 °C; +21 charge state of the dimer; before or after reaction with the CMP-Kdo reaction mix

T1 sequence (Q6U8B0 entry or part of it): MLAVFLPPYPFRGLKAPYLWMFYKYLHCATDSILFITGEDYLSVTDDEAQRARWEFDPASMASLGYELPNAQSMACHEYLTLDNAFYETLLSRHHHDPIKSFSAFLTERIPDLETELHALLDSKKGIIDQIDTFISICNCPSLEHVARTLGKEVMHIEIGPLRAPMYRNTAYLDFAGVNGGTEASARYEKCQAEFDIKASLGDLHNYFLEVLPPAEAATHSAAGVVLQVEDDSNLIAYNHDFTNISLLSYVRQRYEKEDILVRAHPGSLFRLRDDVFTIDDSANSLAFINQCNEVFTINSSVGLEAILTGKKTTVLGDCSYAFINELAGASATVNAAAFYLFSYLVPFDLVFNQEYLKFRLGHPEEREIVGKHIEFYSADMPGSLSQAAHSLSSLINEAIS

Molecule	native MS and pepsin MS/MS after NaBH4 reduction of the enzyme-Kdo adduct (WbbBGT99)	stoichiometry N [1]
Nc1ccn([C@@H]2O[C@H](COP(=O)(O)O[C@@]3(C(=O)O)C[C@@H](O)[C@@H](O)[C@@H]([C@H](O)CO)O3)[C@@H](O)[C@H]2O)c(=O)n1 [CMP-β-Kdo]	Asp232 is the sole residue that has been converted to homoserine	–
B1	–	2
B2	–	2
B3	–	2
